Experiment: soluble fraction after stress (log2 fold change); higher = more stays soluble; pooled small domains, quantitative proteomics
Settings: stress: 75 degC
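Note: 20 min heating vs room temperature control held 20 min.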

HMDNITIYSSNGKIYVNAIGGEKIELFNITGQKVAEKVAVSGINVLDAVYDITLVKVGSKVVKVV
soluble fraction (log2): -2.36

HMDNLATRILKELNNNDGFLPLSDKSQPEAIYQAFGISKKSYKTAIGTLYKKRLITISENGIQLTD
soluble fraction (log2): -0.67

HMDNLSQMQERILEFIIRSKDQSGYTPSLREIGDEVGLKAVSSVKYQLEQLKDAHYISFDANTARAIRVLI
soluble fraction (log2): -1.68

HMDNMFVEERQALIYEELQSNGRVRVKDLSKKFNVSEDLIRKDLNVLEKEGKLRKIYGGAVLAK
soluble fraction (log2): 0.237

HMDNNNQAAFMGALNSLKEYAKVNGNIVTKQDVESYFKDLGLDDSKYQMITGYLLANDITVKG
soluble fraction (log2): 0.181

HMDNQYGVYSDEKNNVEIHWKRIDHPSVAKDHLDIEAYQNGKRVDINNQQADHYRYLINQEMNE
soluble fraction (log2): 0.201

HMDPAFAQHHDRALSILHSRGYEVHDSDTDLHWARPVLEFEAYKGSLEYKIVMSYPDLNIIEERVD
soluble fraction (log2): -0.906

HMDPASYEARLSTLREQGAQQLDPVRFQYLATLAQRLPTQTPGVALILANKLRAGLSDYEQRLSEAGS
soluble fraction (log2): -0.0569

HMDPDAIVSKGQLGALNNAIGRFIAQGGSQTVVDKGIAKRNPNAKKPADLTNSQAESLEAAILKILNG
soluble fraction (log2): 0.73

HMDPLGALSDRERQVLALIGQGHGLQAIADQLGVSYKTAANTSSALKKKLGVDGINGLMKFALDSG
soluble fraction (log2): -0.443

HMDPLGGFTKGDVDMDGRVAVNDAVMVLKNAIKLMELDTQQLMLADADNDGKITVNDAVMILKKAIKLID
soluble fraction (log2): -0.149

HMDPTLFRLNILEGLGLEKKNLTSEEQEQLRFLYEHFSMKEILMTIDYIKKLNLEKSIVNLYRLMQHP
soluble fraction (log2): -0.823

HMDPTVEENKLNPRDLLIIQRVKEGRTNKEIAEELNVAEITVKKQLSSLYQRYKVHNRNQLLLALD
soluble fraction (log2): -0.285

HMDPVQLEVIKKLNLLNAQKPKDIYALRDVLSEMFPQSDIRLLLKELLDKGYIYWNGHEVIYSHEMF
soluble fraction (log2): -0.272

HMDPYEYQLELEKLINNATELNKKYNYDPLKDKILAADAVKNSLETYVLQNYIVALENEIKQTLNQYQIL
soluble fraction (log2): -0.685

HMDQNDYMLTRIRNGQMRNKVSVSMPASKIKSAIAAVLKDEGYIENFALNDSSGKPSLIVNLKYYAGQPV
soluble fraction (log2): -0.0681

HMDQPVIDVREFGARGDGKQDDAPAIQAAVRLAEQLGGGRVVVPATREFYLLGSTIRIRGHHVTLTGPGAR
soluble fraction (log2): 0.0456

HMDRAIAAHLEARVRDALKQLSPEQTRVIELFFFDNKTHAEIENDLKIPLGTVKSRLRLALNKLRASL
soluble fraction (log2): -2.55

HMDRASGEEEALKEAEDAISRVWEFDGPVELNPQNSYLRRLQHELASRYNVKSVSIGQEPNRRVVYYK
soluble fraction (log2): -0.163

HMDRDPAEAGYDDGYLSGNTDGMNNDERATYDESSQYPTPDERQSYAAAYRRGYAAGFADGRKQAV
soluble fraction (log2): -0.000174

HMDREIVEAIVPLEAAGKRFDAALAEMFPEFSRSRLTEWIKAGDALLAGEIVKPKVSVRGGEAVSLSIRV
soluble fraction (log2): -0.765

HMDRELVALVQKALSQLSEQQRRIVELHVMEGMKYLEIADLLQLSENTVRTHLKRAYKILRENH
soluble fraction (log2): -1.98

HMDRERFIKLGREIARAAFENVGKKATDKVLNSAAKKLRLEDGDEVLARLGSAEIEARSVVQAVYPDLI
soluble fraction (log2): 0.286

HMDRKARRKYIEQVVNDRKIETQEELLKLLTEAGFETTQATISRDIHALNIVKANDGDGHTHYVQLH
soluble fraction (log2): -0.0596

HMDRKEEIIIVTLKLASQIGLSNVSMEQIAKQVGIKKPSLYNHFKSKDEIIDAMYEYLREKSKN
soluble fraction (log2): -2.16

HMDRMIPPYGLEVTYDKTTHIIFPSAVRYVDLGSPNLIAGKADGSENVIRVKATRKNFREETNMSVITE
soluble fraction (log2): 0.152

HMDRPEPLYIVNGKEVQTLEEAFELGRTLGSAKKGTQVRLRRLLPEEGVEKYGEKGRNGVFEFMVSA
soluble fraction (log2): 0.269

HMDRPLRTKEHFARFAGEQVVVKTSSPIDGRSSFTGTLEGMEGDDVIVEVDGSRIAIGYSLIKRAHVVG
soluble fraction (log2): 0.00178

HMDRRFFVAEENYKRLDVFLSERMEEFTRSRIKKLIDEGHVELNGKSAKAGAEIRPGDEVAAEIPEVKE
soluble fraction (log2): 0.195

HMDRRIDIANAVKTALGSLPERQKTAIVLVHYEGFSGAETAKLLGISVEAVESLLARARRNLRQTLGP
soluble fraction (log2): -0.471

HMDRTIGEIGLVTETIDSTLESGRVMVDGLSWKARTSDNTVLEAGTRVQVKEIHGVTLTVEKA
soluble fraction (log2): 0.292

HMDRTLTYTVSIEESDLRADQFLSRRGFSSHLLTRLRKNMEHLLINGTPSRTNTHLHEGDILTVHIVEE
soluble fraction (log2): -2.19

HMDRWTPLIVAVLIEGSHRFGELRSAIGGITPKVLTETLRSMERDGLVTRDQVPGVPPRVDYALTPLG
soluble fraction (log2): -0.462

HMDRYVDEEKRFYWRSGEAYLNFSKYKDRSLAEVATVDPGFLRWMMEADFSPETKQIVERALEGEFPQKK
soluble fraction (log2): -0.29

HMDSADADLLRRIEDLLSSRRSVIREARLADMLGVPRDQVARALDLLQERGVIGLTTDSGMKRIAFRRN
soluble fraction (log2): -0.356

HMDSAQLARWAATILAQNGRKITPSTMNLFLERVGDDMENIRMELEKLISYTMGSEVVTAEDVKVITTVQ
soluble fraction (log2): -1.01

HMDSAVLQKHLVKLIELHAPIKARNLAKILADEFGKHVDRSAVNSALYSLKAERKVEVNSSYEWSLD
soluble fraction (log2): -2.25

HMDSDRAARLSSLTPQQFRVLRMVSEGQLNKQIAYQLNISEATVKSHVSAILQKLGVNSRTQAVILATRLD
soluble fraction (log2): -3.37

HMDSEQLSGLVNMGFSVYQAKTALEMFDNDIERAANYL
soluble fraction (log2): -0.478

HMDSERTALLSSDRTSFTAREAALLIGVSQRDIYRMIEDELLDSFTVGKMIRIRRSALEWWLS
soluble fraction (log2): -2.93

HMDSFEEGTYRKNQRGFGFVKIENQEDEIFISKENSLNALNGDRVIVEIIEDKDRTKRAEGKIKKILKHE
soluble fraction (log2): 0.531

HMDSGLLSAREREVAGLVLSGMTYAEIGEAIFISPRTAEHHIARIRRRLGATSRTDLIAKLQAIVGID
soluble fraction (log2): -3.41

HMDSGVPEWLASALRASPVAWKNFLALPPSHQRRYVGWISSARRDETRNRRIAEAISLLVEHKRLG
soluble fraction (log2): -2.18

HMDSIKDQIYQILKEDILTGELRSGEQLVEQTIAARFNTSRSPVREAIKQLTGDGLVINITNKGTFVK
soluble fraction (log2): 0.227

HMDSISEQIYSIIKEEILLAKRKPGEQINPRKLADEFETSVMPIRDALNQLANEGLVIRKPRVGFFVR
soluble fraction (log2): -0.501

HMDSITEADLLRWAHALSGIARTGLGFTESRYERERYEEVLAVAADILAASSRSHDRAALVDEWLKMVGV
soluble fraction (log2): -2.03

HMDSKKNLLGKNGLAFTTLRPAGTVLIDGQRHDVISNGDMIPKGATVRVIAIEGASITVEALPD
soluble fraction (log2): 0.0814

HMDSMATVPDLVGKTEDEAKALANDAHLGVQMAGEEASDQEKGKISRQETAAGTQVAEYTTVKYWVSTGTQ
soluble fraction (log2): 0.763

HMDSPALAIPSSAILRDGLEHIFFRQDPSDPDQVIRVVADLGLSDGRWTVVRSGLERTDQVVLSGA
soluble fraction (log2): 0.181

HMDSQKKNETLSSTADEIIKNYAGKRDLSEESMEQLEQFQKDMRGADVNIFTAAQIRMLDQIFQENLH
soluble fraction (log2): 0.221

HMDSSLVWVDYLLGSKLTKLNSSNELTGPGASAKTIGAFLGENKQSFDLYIESVHNARDTYSDILTHGT
soluble fraction (log2): -0.186

HMDSSSYSAKVGTLIQETRQARGMTQAQLAQALGTSQSAINRIEKGGQNISLDMLNRISEVLSSQIVTLNP
soluble fraction (log2): -0.0411

HMDSVAKSFLAEIERFLETAGLEPTTLGKQALGDPSFVFDLRKGRSPSTRTIGKLRVWMQQQNALS
soluble fraction (log2): -1.34

HMDSVTLGISFNGKTRFTLDFPADAAAADIEKAALEAEQSQRYLEGMTVAKVIVVPGRIVNIVLK
soluble fraction (log2): -2.23

HMDSVTMYATTGVNVRSGPSTSYSIVGGLDRGDKVTRIGTSGNWTKVVWGNGSAYVFSKYLQTGY
soluble fraction (log2): -3.04

HMDTAEQNWRLRGKLVTLGLNARQIRMALASHAPRYLEDNIAVVERDLAAGKVRNLPAYLLAALREDYRP
soluble fraction (log2): -1.86

HMDTEIGDILALRQIMELLDEKDRQLIIMRYFQGLTQSVTAKNLNMTQVQVSRREKKLLTFMREQLL
soluble fraction (log2): -0.702

HMDTEVVMINVVGMNIDKAKNSLNHKNILYKISYQDVSEGENNVVLKQSISSNTKIKKGQVVSLVVGKLN
soluble fraction (log2): -1.42

HMDTFEITVEESDIDKRIDLFLAGNLESFSRSYIQDLIKKGKATISGKPVKANYRLREGDSVVLSIPKPK
soluble fraction (log2): -0.209

HMDTGKLQSLVGSRGVAHTVLRPSGKVMIGDDVYPAVAETGFIPRGTAIVVRREEQGQLYVVEARK
soluble fraction (log2): -0.318

HMDTGPISGQVEADRVEVHGHLDGKISAQNVVVGQTGVVKGDIEFGENLRTEEGADIEGYIK
soluble fraction (log2): 0.0611

HMDTGPSFATRRQEAFNALTQIAASNKEFMNVAGDVLWKVADFPEAQILAQRWRRIIPPNVLGEA
soluble fraction (log2): -0.465

HMDTIAEFIAELTPLEQKVFHVYYEKGQSLKDTAQQAEITSTSARGALDRIRAKGRHFHLAVILFIG
soluble fraction (log2): -0.7

HMDTINEYERNILSLITSKPGISAVQIAADTDKSIITAKRGIKTLVDGKLIEYRGSKKTGGYFLLTQS
soluble fraction (log2): -0.41

HMDTIYMVVAKNIKYYRLIKSMSKKDLAEAVNVTPMAISNYENGKRKPEIDILKKIANVLGVRVVDFLTVR
soluble fraction (log2): -4.45

HMDTKLFNYGVGKHAYISWNEGGKRTAYIGFGNDGADVLTINNVKQGGSLGIYKDKITLNSQTVLTD
soluble fraction (log2): -0.038

HMDTLHGRILEEFSRKIVDGTWPPGFSLPKETELADQYGVSRMTMNKVLTRLASDGFVIRRKRSGTVVAQP
soluble fraction (log2): -1.34

HMDTLTRAMVWTIIARAEGVDTTGGATWYAKAQEWVTAKGISDGENPNAAITRQELVTMLYRLAGEPAV
soluble fraction (log2): -3.56

HMDTMQQESMDTKSILATALMELTSRKNFAKITIADITHVSGFNRQTFYYHFRDKYELLSWIY
soluble fraction (log2): -0.0387

HMDTNRIIGNKIYQLRRSINMTQQELAEKVGISVTFLSEIENGRKSMSVDTLIKLSKGLQVSLDTIVF
soluble fraction (log2): -4.31
